Experimental data from the supplement of paper PMC10567573.

B1: TBX5 (parent)
chain: FHEVGTEMIITKAGRRMFPSYKVK
B2: ZER1 (parent)
chain: FDGPEAWGVCEPQREEVEERMWAA

Variants of: B1
Assay: protein stability index of a GFP-peptide fusion (GPS, HEK-293T) (PSI 1-6); higher = more stable
Settings: c terminus: a fixed tail appended
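Further: lentivirally expressed fusions sorted by FACS into six bins by GFP to DsRed ratio, PSI derived from sequencing read proportions per bin multiplied by bin number.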

Protein stability index, by site and new letter:
Y21: V 1.86 | C 2.21 | T 2.42 | P 2.13 | R 3.16 | Q 2.7 | S 2.61 | G 2.51 | D 2.64 | H 3.03 | W 1.87 | E 2.92 | N 2.55 | I 1.48 | K 2.21 | A 2.66 | F 2.83 | M 1.95 | L 2.15
P19: W 1.75 | L 1.74 | I 2.23 | H 1.09 | Q 1.98 | N 1.61 | T 2.1 | D 2.2 | A 2 | V 1.77 | K 3.38 | R 2.89 | G 2 | S 2.72 | M 1.4 | Y 3.12 | F 1.79 | C 2.53 | E 2.19
K24: T 2.41 | I 1.54 | A 1.99 | M 2.55 | E 1.89 | L 1.99 | P 1.55 | G 2.03 | R 1.51 | Q 1.33 | H 1.59 | F 2.83 | D 2.2 | V 1.65 | Y 2.08 | N 1.08 | W 1.65 | C 2.62 | S 1.15
F18: Y 2.07 | Q 2.58 | K 1.94 | P 2.11 | H 3.08 | T 1.92 | G 2.25 | I 2.07 | R 1.76 | A 2.76 | L 2.51 | S 2.41 | E 2.34 | N 2.07 | C 2.61 | V 2.01 | W 1.8 | M 2.23
S20: I 2.54 | W 2.42 | T 2.69 | E 2.02 | A 1.89 | D 2.18 | M 2.67 | Q 2.83 | R 2.61 | V 1.97 | P 2.42 | L 1.86 | N 2.06 | K 2.18 | H 2.31 | C 3.1 | Y 2.84 | G 1.93
M17: T 1.98 | V 1.63 | K 2.11 | D 2.28 | F 2 | S 2.68 | P 1.84 | E 2.83 | I 1.98 | R 2.57 | N 1.87 | A 2.38 | Q 2.5 | Y 2.44 | H 1.71 | G 1.67 | C 2.05 | L 2.27
R16: I 1.81 | A 1.91 | K 2.65 | P 2.11 | Q 1.85 | Y 1.92 | G 2.43 | C 1.59 | F 2.31 | E 2.38 | H 2.02 | N 2.54 | T 2.03 | S 1.75 | D 2.15 | M 1.96 | L 2.09 | V 1.54
K22: W 1.98 | F 1.65 | M 2.01 | Q 1.79 | D 2.34 | E 1.9 | V 1.43 | H 1.55 | I 2.03 | L 2.14 | N 2.03 | S 2.18 | P 2.08 | C 1.86 | Y 2.89 | A 1.97 | G 2.28 | R 2.45 | T 1.51
G14: I 1.66 | R 1.64 | V 1.62 | L 1.71 | E 2 | H 1.73 | W 1.95 | D 1.48 | M 1.49 | Q 2.17 | N 2.04 | K 1.68 | F 2.41 | T 2.42 | S 1.83 | A 2.6 | Y 2.17 | P 2.86
R15: Q 2.2 | F 1.91 | W 1.53 | L 1.81 | D 2.71 | K 1.92 | V 1.72 | Y 2.58 | S 1.69 | E 1.74 | M 1.59 | T 2.21 | G 1.77 | N 2.29 | I 1.83 | H 2.14 | C 2.63 | A 2.18 | P 1.87
T11: V 1.76 | I 1.19 | K 2.59 | L 2.14 | P 2.28 | S 3.49 | M 1.53 | Y 1.02 | N 2.46 | D 2.13 | Q 1.88 | F 1.71 | R 2.47 | E 2.36
V23: W 2.2 | K 2.24 | P 2.8 | F 2.23 | N 2.26 | L 1.41 | A 2.35 | H 2.17 | Q 2.09 | R 2.71 | D 2.52 | S 2.27 | C 1.84 | E 2.5 | G 2.9 | T 2.14 | Y 1.82 | I 1.97 | M 1.78
A13: N 2.27 | Y 1.55 | M 1.3 | G 1.84 | H 2.11 | V 2.02 | C 2.03 | L 2.61 | D 2.57 | S 1.87 | F 1.97 | Q 2.65 | P 1.93 | T 1.68 | E 2.68 | K 2.44 | R 2.65 | W 1.93
K12: A 2.52 | F 2.76 | L 2.81 | E 1.83 | P 2.12 | G 2.1 | N 2.1 | Y 2.91 | S 2.51 | R 2.02 | H 1.8 | C 1.31 | D 2.57 | T 1.78 | V 2.68 | I 1.6 | Q 1.73

Variants of: B2
Assay: as above
Settings: c terminus: a fixed tail appended

Protein stability index, by site and new letter:
P4: H 1.79 | A 2.48 | R 2.81 | Y 1.95 | M 3.65 | Q 3.25 | T 3.25 | G 2.73 | L 2.47 | D 3.89 | F 1.91 | E 4.48 | I 3.23 | V 2.48 | K 3.02 | C 2.63 | S 3.29
D2: E 2.08 | R 1.8 | I 5.1 | W 3.21 | L 2.62 | F 1.68 | Q 2.69 | K 3.26
E5: D 2.99 | F 3.67 | R 3.48 | Q 3.54 | P 3.42 | S 2.61 | W 2.54 | V 3.33 | G 3.26 | H 2.59 | A 2.82 | C 3.73 | I 2.94 | N 1.95 | Y 2.76 | K 3.13 | L 1.64
F1: Q 4.88 | R 4.45 | C 4.17 | E 4.99 | D 4.33 | W 4.5 | P 5.04 | T 4.94 | M 3.3 | K 3.97 | Y 3.15 | I 4.69 | L 3.93 | A 5.03 | N 4.87 | G 4.72 | S 4.77
G3: W 2.12 | V 1.63 | C 3.88 | P 4.42 | L 1.62 | M 2.1 | E 1.52 | S 1.96 | T 1.98 | H 1.87 | D 2.56 | I 1.78 | N 2.58 | F 2.06
A6: C 2.57 | L 1.56 | I 2.43 | H 2.38 | G 3.38 | D 4.67 | E 4.45 | K 3.02
